Laboratory results from patent US20190241648A1 (STATEN BIOTECHNOLOGY B V, published 2019).
Ends that are not written are not given here.

Experiments:
Assay in all cases: peptide microarray
[1] = biological target: ApoC3 peptide … E63T (human, cyclic constrained)
In short: (§1)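 ApoC3 peptide microarrays incubated with antibody samples and then stained with goat anti-human IgG (Fc) DyLight680 plus anti-HA DyLight800 control antibody. Scanned at intensity 7/7 (red/green); a secondary-only prestain checked for background, and framing HA peptides served as quality control.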

[2] = biological target: ApoC3 peptide … E70A (human, cyclic constrained)
In short: as §1

[3] = biological target: T1, ApoC3 peptide … D68M (human, cyclic constrained)
T1 peptide: DKFSEFWDLMPEV
In short: as §1

[4] = biological target: T2, ApoC3 peptide … D59V (human, not fully specified (bridges); also: cyclic constrained)
T2 peptide: VKFSEFWDLDPEV
In short: as §1

[5] = biological target: ApoC3 peptide … E63D (human, cyclic constrained)
In short: as §1

[6] = biological target: T3, ApoC3 peptide … D59Q (human, cyclic constrained)
T3 peptide: QKFSEFWDLDPEV
In short: as §1

[7] = biological target: ApoC3 peptide … V71Y (human, cyclic constrained)
In short: as §1

[8] = biological target: ApoC3 peptide … E63K (human, cyclic constrained)
In short: as §1

[9] = biological target: ApoC3 peptide … W65D (human, cyclic constrained)
In short: as §1

[10] = biological target: T4, ApoC3 peptide … F61C (human, cyclic constrained)
T4 peptide: DKCSEFWDLDPEV
In short: as §1

[11] = biological target: T5, ApoC3 peptide … F61W (human, not fully specified (bridges); also: cyclic constrained)
T5 peptide: DKWSEFWDLDPEV
In short: as §1

[12] = biological target: T6, ApoC3 peptide … D68K (human, cyclic constrained)
T6 peptide: DKFSEFWDLKPEV
In short: as §1

[13] = biological target: T7, ApoC3 peptide … P69M (human, not fully specified (bridges); also: cyclic constrained)
T7 peptide: DKFSEFWDLDMEV
In short: as §1

[14] = biological target: T8, ApoC3 peptide … D59T (human, cyclic constrained)
T8 peptide: TKFSEFWDLDPEV
In short: as §1

[15] = biological target: T9, ApoC3 peptide … L67C (human, not fully specified (bridges); also: cyclic constrained)
T9 peptide: DKFSEFWDCDPEV
In short: as §1

[16] = biological target: T10, ApoC3 peptide … P69C (human, not fully specified (bridges); also: cyclic constrained)
T10 peptide: DKFSEFWDLDCEV
In short: as §1

[17] = biological target: ApoC3 peptide … P69Y (human, cyclic constrained)
In short: as §1

[18] = biological target: ApoC3 peptide … V71K (human, cyclic constrained)
In short: as §1

[19] = biological target: ApoC3 peptide … S62W (human, cyclic constrained)
In short: as §1

[20] = biological target: T11, ApoC3 peptide … D68E (human, cyclic constrained)
T11 peptide: DKFSEFWDLEPEV
In short: as §1

[21] = biological target: ApoC3 peptide … D68V (human, cyclic constrained)
In short: as §1

[22] = biological target: ApoC3 peptide … V71S (human, cyclic constrained)
In short: as §1

[23] = biological target: T12, ApoC3 peptide … L67K (human, not fully specified (bridges); also: cyclic constrained)
T12 peptide: DKFSEFWDKDPEV
In short: as §1

[24] = biological target: T13, ApoC3 peptide … F61T (human, not fully specified (bridges); also: cyclic constrained)
T13 peptide: DKTSEFWDLDPEV
In short: as §1

[25] = biological target: T14, ApoC3 peptide … D66Y (human, not fully specified (bridges); also: cyclic constrained)
T14 peptide: DKFSEFWYLDPEV
In short: as §1

[26] = biological target: ApoC3 peptide … S62D (human, cyclic constrained)
In short: as §1

[27] = biological target: ApoC3 peptide … E63M (human, cyclic constrained)
In short: as §1

[28] = biological target: ApoC3 peptide … S62N (human, cyclic constrained)
In short: as §1

[29] = biological target: T15, ApoC3 peptide … W65S (human, not fully specified (bridges); also: cyclic constrained, ring type and places not given here)
T15 peptide: DKFSEFSDLDPEV
In short: as §1

[30] = biological target: ApoC3 peptide … S62H (human, cyclic constrained)
In short: as §1

[31] = biological target: ApoC3 peptide … S62Q (human, cyclic constrained)
In short: as §1

[32] = biological target: T16, ApoC3 peptide … F61K (human, not fully specified (bridges); also: cyclic constrained)
T16 peptide: DKKSEFWDLDPEV
In short: as §1

[33] = biological target: T17, ApoC3 peptide … W65I (human, not fully specified (bridges); also: cyclic constrained, ring type and places not given here)
T17 peptide: DKFSEFIDLDPEV
In short: as §1

[34] = biological target: ApoC3 peptide … V71D (human, cyclic constrained)
In short: as §1

[35] = biological target: T18, ApoC3 peptide … D66M (human, not fully specified (bridges); also: cyclic constrained)
T18 peptide: DKFSEFWMLDPEV
In short: as §1

[36] = biological target: T19, ApoC3 peptide … D66T (human, not fully specified (bridges); also: cyclic constrained)
T19 peptide: DKFSEFWTLDPEV
In short: as §1

[37] = biological target: ApoC3 peptide … S62E (human, cyclic constrained)
In short: as §1

[38] = biological target: ApoC3 peptide … V71H (human, cyclic constrained)
In short: as §1

[39] = biological target: T20, ApoC3 peptide … E70P (human, not fully specified (bridges); also: cyclic constrained)
T20 peptide: DKFSEFWDLDPPV
In short: as §1

- % of binding to wild-type peptide [1]: 35.9%
- % of binding to wild-type peptide [2]: 0.97%
- % of binding to wild-type peptide [3]: 0%
- % of binding to wild-type peptide [4]: 65.1%
- % of binding to wild-type peptide [5]: 77.9%
- % of binding to wild-type peptide [6]: 95%
- % of binding to wild-type peptide [7]: 87.3%
- % of binding to wild-type peptide [8]: 7.9%
- % of binding to wild-type peptide [9]: 130%
- % of binding to wild-type peptide [10]: 20.6%
- % of binding to wild-type peptide [11]: 32.9%
- % of binding to wild-type peptide [12]: 0%
- % of binding to wild-type peptide [13]: 44.1%
- % of binding to wild-type peptide [14]: 101%
- % of binding to wild-type peptide [15]: 1.13%
- % of binding to wild-type peptide [16]: 28.9%
- % of binding to wild-type peptide [17]: 52%
- % of binding to wild-type peptide [18]: 58.7%
- % of binding to wild-type peptide [19]: 4.78%
- % of binding to wild-type peptide [20]: 56.9%
- % of binding to wild-type peptide [21]: 0%
- % of binding to wild-type peptide [22]: 84.7%
- % of binding to wild-type peptide [23]: 25.8%
- % of binding to wild-type peptide [24]: 56.3%
- % of binding to wild-type peptide [25]: 0%
- % of binding to wild-type peptide [26]: 35%
- % of binding to wild-type peptide [27]: 43.5%
- % of binding to wild-type peptide [28]: 126%
- % of binding to wild-type peptide [29]: 132%
- % of binding to wild-type peptide [30]: 26.5%
- % of binding to wild-type peptide [31]: 111%
- % of binding to wild-type peptide [32]: 37.2%
- % of binding to wild-type peptide [33]: 20.3%
- % of binding to wild-type peptide [34]: 223%
- % of binding to wild-type peptide [35]: 0.08%
- % of binding to wild-type peptide [36]: 0%
- % of binding to wild-type peptide [37]: 70.7%
- % of binding to wild-type peptide [38]: 75.9%
- % of binding to wild-type peptide [39]: 2.53%
B1: anti-ApoC3 antibody 6A6 (antibody, V domains shown)
VH: EVQLVESGGGLVQPGGSLRLSCAASGFTFSSYAGRWVRQVPGKGLEWVSSINAGGGSTSYADSVKGRFTISRDNAKNTLYLQMNSLKPEDTAKYYCTQNSYRYWGQGTRVAVSS
VL: DVVLTQTPGSLSVVPGESASISCKASQSLIHTDGKTYLYWLLQKPGQRPQLLIYQVSSHESGVPDRFTGSGSGTDFTLKISGVKAEDAGVYYCAQATYNPRTFGQGTKLEIK
notes: it was detected with goat anti-human IgG (Fc); also called mAb 6A6; llama antibody 6A6
